In patent US20180273587A1 (AILERON THERAPEUTICS, published 2018):
Positions of bridges follow the written chain, without caps; N, C: chain ends. Non-standard residues stand in square brackets, D forms with d. Bip = N[C@@H](Cc1ccc(-c2ccccc2)cc1)C(=O)O; αMeW = C[C@](N)(Cc1c[nH]c2ccccc12)C(=O)O; R8 = C=CCCCCCC[C@@](C)(N)C(=O)O; S5 = C=CCCC[C@](C)(N)C(=O)O; Ac6c = NC1(C(=O)O)CCCCC1; Ac5c = NC1(C(=O)O)CCCC1; Aib = CC(C)(N)C(=O)O

B1: SEQ ID NO: 1697 (peptide)
peptide: Ac-IWIAQA[Bip]R[R8]IGDAFN[S5]YYA-NH2
modifications: staple 9-16
SMILES: CC[C@H](C)[C@H](NC(C)=O)C(=O)N[C@@H](Cc1c[nH]c2ccccc12)C(=O)N[C@H](C(=O)N[C@@H](C)C(=O)N[C@@H](CCC(N)=O)C(=O)N[C@@H](C)C(=O)N[C@@H](Cc1ccc(-c2ccccc2)cc1)C(=O)N[C@@H](CCCNC(=N)N)C(=O)N[C@]1(C)CCCCCCC=CCCC[C@@](C)(C(=O)N[C@@H](Cc2ccc(O)cc2)C(=O)N[C@@H](Cc2ccc(O)cc2)C(=O)N[C@@H](C)C(N)=O)NC(=O)[C@H](CC(N)=O)NC(=O)[C@H](Cc2ccccc2)NC(=O)[C@H](C)NC(=O)[C@H](CC(=O)O)NC(=O)CNC(=O)[C@H]([C@@H](C)CC)NC1=O)[C@@H](C)CC
notes: also called Ac-IWIAQABipR$r8IGDAFN$YYA-NH2
B2: SEQ ID NO: 1703 (peptide)
peptide: Ac-I[αMeW]IAQALR[R8]IGDAFN[S5]YYA-NH2
modifications: staple 9-16
SMILES: CC[C@H](C)[C@H](NC(C)=O)C(=O)N[C@@](C)(Cc1c[nH]c2ccccc12)C(=O)N[C@H](C(=O)N[C@@H](C)C(=O)N[C@@H](CCC(N)=O)C(=O)N[C@@H](C)C(=O)N[C@@H](CC(C)C)C(=O)N[C@@H](CCCNC(=N)N)C(=O)N[C@]1(C)CCCCCCC=CCCC[C@@](C)(C(=O)N[C@@H](Cc2ccc(O)cc2)C(=O)N[C@@H](Cc2ccc(O)cc2)C(=O)N[C@@H](C)C(N)=O)NC(=O)[C@H](CC(N)=O)NC(=O)[C@H](Cc2ccccc2)NC(=O)[C@H](C)NC(=O)[C@H](CC(=O)O)NC(=O)CNC(=O)[C@H]([C@@H](C)CC)NC1=O)[C@@H](C)CC
notes: also called Ac-IAmWIAQALR$r8IGDAFN$YYA-NH2
B3: SEQ ID NO: 1715 (peptide)
peptide: Ac-IW[Ac5c]AQALR[R8]IGDAFN[S5]YYA-NH2
modifications: staple 9-16
SMILES: CC[C@H](C)[C@H](NC(C)=O)C(=O)N[C@@H](Cc1c[nH]c2ccccc12)C(=O)NC1(C(=O)N[C@@H](C)C(=O)N[C@@H](CCC(N)=O)C(=O)N[C@@H](C)C(=O)N[C@@H](CC(C)C)C(=O)N[C@@H](CCCNC(=N)N)C(=O)N[C@]2(C)CCCCCCC=CCCC[C@@](C)(C(=O)N[C@@H](Cc3ccc(O)cc3)C(=O)N[C@@H](Cc3ccc(O)cc3)C(=O)N[C@@H](C)C(N)=O)NC(=O)[C@H](CC(N)=O)NC(=O)[C@H](Cc3ccccc3)NC(=O)[C@H](C)NC(=O)[C@H](CC(=O)O)NC(=O)CNC(=O)[C@H]([C@@H](C)CC)NC2=O)CCCC1
notes: also called Ac-IWAc5cAQALR$r8IGDAFN$YYA-NH2
B4: SEQ ID NO: 1708 (peptide)
peptide: Ac-IWIA[Aib]ALR[R8]IGDAFN[S5]YYA-NH2
modifications: staple 9-16
SMILES: CC[C@H](C)[C@H](NC(C)=O)C(=O)N[C@@H](Cc1c[nH]c2ccccc12)C(=O)N[C@H](C(=O)N[C@@H](C)C(=O)NC(C)(C)C(=O)N[C@@H](C)C(=O)N[C@@H](CC(C)C)C(=O)N[C@@H](CCCNC(=N)N)C(=O)N[C@]1(C)CCCCCCC=CCCC[C@@](C)(C(=O)N[C@@H](Cc2ccc(O)cc2)C(=O)N[C@@H](Cc2ccc(O)cc2)C(=O)N[C@@H](C)C(N)=O)NC(=O)[C@H](CC(N)=O)NC(=O)[C@H](Cc2ccccc2)NC(=O)[C@H](C)NC(=O)[C@H](CC(=O)O)NC(=O)CNC(=O)[C@H]([C@@H](C)CC)NC1=O)[C@@H](C)CC
notes: also called Ac-IWIAAibALR$r8IGDAFN$YYA-NH2
B5: SEQ ID NO: 1704 (peptide)
peptide: Ac-I[Aib]IAQALR[R8]IGDAFN[S5]YYA-NH2
modifications: staple 9-16
SMILES: CC[C@H](C)[C@H](NC(C)=O)C(=O)NC(C)(C)C(=O)N[C@H](C(=O)N[C@@H](C)C(=O)N[C@@H](CCC(N)=O)C(=O)N[C@@H](C)C(=O)N[C@@H](CC(C)C)C(=O)N[C@@H](CCCNC(=N)N)C(=O)N[C@]1(C)CCCCCCC=CCCC[C@@](C)(C(=O)N[C@@H](Cc2ccc(O)cc2)C(=O)N[C@@H](Cc2ccc(O)cc2)C(=O)N[C@@H](C)C(N)=O)NC(=O)[C@H](CC(N)=O)NC(=O)[C@H](Cc2ccccc2)NC(=O)[C@H](C)NC(=O)[C@H](CC(=O)O)NC(=O)CNC(=O)[C@H]([C@@H](C)CC)NC1=O)[C@@H](C)CC
notes: also called Ac-IAibIAQALR$r8IGDAFN$YYA-NH2
B6: SEQ ID NO: 1714 (peptide)
peptide: Ac-IW[Ac6c]AQALR[R8]IGDAFN[S5]YYA-NH2
modifications: staple 9-16
SMILES: CC[C@H](C)[C@H](NC(C)=O)C(=O)N[C@@H](Cc1c[nH]c2ccccc12)C(=O)NC1(C(=O)N[C@@H](C)C(=O)N[C@@H](CCC(N)=O)C(=O)N[C@@H](C)C(=O)N[C@@H](CC(C)C)C(=O)N[C@@H](CCCNC(=N)N)C(=O)N[C@]2(C)CCCCCCC=CCCC[C@@](C)(C(=O)N[C@@H](Cc3ccc(O)cc3)C(=O)N[C@@H](Cc3ccc(O)cc3)C(=O)N[C@@H](C)C(N)=O)NC(=O)[C@H](CC(N)=O)NC(=O)[C@H](Cc3ccccc3)NC(=O)[C@H](C)NC(=O)[C@H](CC(=O)O)NC(=O)CNC(=O)[C@H]([C@@H](C)CC)NC2=O)CCCCC1
notes: also called Ac-IWAc6cAQALR$r8IGDAFN$YYA-NH2
B7: SEQ ID NO: 1720 (peptide)
peptide: Ac-SWIAAALR[R8]IGDAFN[S5]YYA-NH2
modifications: staple 9-16
SMILES: CC[C@H](C)[C@H](NC(=O)[C@H](Cc1c[nH]c2ccccc12)NC(=O)[C@H](CO)NC(C)=O)C(=O)N[C@@H](C)C(=O)N[C@@H](C)C(=O)N[C@@H](C)C(=O)N[C@@H](CC(C)C)C(=O)N[C@@H](CCCNC(=N)N)C(=O)N[C@]1(C)CCCCCCC=CCCC[C@@](C)(C(=O)N[C@@H](Cc2ccc(O)cc2)C(=O)N[C@@H](Cc2ccc(O)cc2)C(=O)N[C@@H](C)C(N)=O)NC(=O)[C@H](CC(N)=O)NC(=O)[C@H](Cc2ccccc2)NC(=O)[C@H](C)NC(=O)[C@H](CC(=O)O)NC(=O)CNC(=O)[C@H]([C@@H](C)CC)NC1=O
B8: SEQ ID NO: 1724 (peptide)
peptide: Ac-FWIAAALR[R8]IGDAFN[S5]YYA-NH2
modifications: staple 9-16
SMILES: CC[C@H](C)[C@H](NC(=O)[C@H](Cc1c[nH]c2ccccc12)NC(=O)[C@H](Cc1ccccc1)NC(C)=O)C(=O)N[C@@H](C)C(=O)N[C@@H](C)C(=O)N[C@@H](C)C(=O)N[C@@H](CC(C)C)C(=O)N[C@@H](CCCNC(=N)N)C(=O)N[C@]1(C)CCCCCCC=CCCC[C@@](C)(C(=O)N[C@@H](Cc2ccc(O)cc2)C(=O)N[C@@H](Cc2ccc(O)cc2)C(=O)N[C@@H](C)C(N)=O)NC(=O)[C@H](CC(N)=O)NC(=O)[C@H](Cc2ccccc2)NC(=O)[C@H](C)NC(=O)[C@H](CC(=O)O)NC(=O)CNC(=O)[C@H]([C@@H](C)CC)NC1=O
B9: SEQ ID NO: 1726 (peptide)
peptide: Ac-IRIAAALR[R8]IGDAFN[S5]YYA-NH2
modifications: staple 9-16
SMILES: CC[C@H](C)[C@H](NC(C)=O)C(=O)N[C@@H](CCCNC(=N)N)C(=O)N[C@H](C(=O)N[C@@H](C)C(=O)N[C@@H](C)C(=O)N[C@@H](C)C(=O)N[C@@H](CC(C)C)C(=O)N[C@@H](CCCNC(=N)N)C(=O)N[C@]1(C)CCCCCCC=CCCC[C@@](C)(C(=O)N[C@@H](Cc2ccc(O)cc2)C(=O)N[C@@H](Cc2ccc(O)cc2)C(=O)N[C@@H](C)C(N)=O)NC(=O)[C@H](CC(N)=O)NC(=O)[C@H](Cc2ccccc2)NC(=O)[C@H](C)NC(=O)[C@H](CC(=O)O)NC(=O)CNC(=O)[C@H]([C@@H](C)CC)NC1=O)[C@@H](C)CC
B10: SEQ ID NO: 1722 (peptide)
peptide: Ac-AWIAAALR[R8]IGDAFN[S5]YYA-NH2
modifications: staple 9-16
SMILES: CC[C@H](C)[C@H](NC(=O)[C@H](Cc1c[nH]c2ccccc12)NC(=O)[C@H](C)NC(C)=O)C(=O)N[C@@H](C)C(=O)N[C@@H](C)C(=O)N[C@@H](C)C(=O)N[C@@H](CC(C)C)C(=O)N[C@@H](CCCNC(=N)N)C(=O)N[C@]1(C)CCCCCCC=CCCC[C@@](C)(C(=O)N[C@@H](Cc2ccc(O)cc2)C(=O)N[C@@H](Cc2ccc(O)cc2)C(=O)N[C@@H](C)C(N)=O)NC(=O)[C@H](CC(N)=O)NC(=O)[C@H](Cc2ccccc2)NC(=O)[C@H](C)NC(=O)[C@H](CC(=O)O)NC(=O)CNC(=O)[C@H]([C@@H](C)CC)NC1=O
B11: SEQ ID NO: 1721 (peptide)
peptide: Ac-QWIAAALR[R8]IGDAFN[S5]YYA-NH2
modifications: staple 9-16
SMILES: CC[C@H](C)[C@H](NC(=O)[C@H](Cc1c[nH]c2ccccc12)NC(=O)[C@H](CCC(N)=O)NC(C)=O)C(=O)N[C@@H](C)C(=O)N[C@@H](C)C(=O)N[C@@H](C)C(=O)N[C@@H](CC(C)C)C(=O)N[C@@H](CCCNC(=N)N)C(=O)N[C@]1(C)CCCCCCC=CCCC[C@@](C)(C(=O)N[C@@H](Cc2ccc(O)cc2)C(=O)N[C@@H](Cc2ccc(O)cc2)C(=O)N[C@@H](C)C(N)=O)NC(=O)[C@H](CC(N)=O)NC(=O)[C@H](Cc2ccccc2)NC(=O)[C@H](C)NC(=O)[C@H](CC(=O)O)NC(=O)CNC(=O)[C@H]([C@@H](C)CC)NC1=O
B12: SEQ ID NO: 1725 (peptide)
peptide: Ac-IDIAAALR[R8]IGDAFN[S5]YYA-NH2
modifications: staple 9-16
SMILES: CC[C@H](C)[C@H](NC(C)=O)C(=O)N[C@@H](CC(=O)O)C(=O)N[C@H](C(=O)N[C@@H](C)C(=O)N[C@@H](C)C(=O)N[C@@H](C)C(=O)N[C@@H](CC(C)C)C(=O)N[C@@H](CCCNC(=N)N)C(=O)N[C@]1(C)CCCCCCC=CCCC[C@@](C)(C(=O)N[C@@H](Cc2ccc(O)cc2)C(=O)N[C@@H](Cc2ccc(O)cc2)C(=O)N[C@@H](C)C(N)=O)NC(=O)[C@H](CC(N)=O)NC(=O)[C@H](Cc2ccccc2)NC(=O)[C@H](C)NC(=O)[C@H](CC(=O)O)NC(=O)CNC(=O)[C@H]([C@@H](C)CC)NC1=O)[C@@H](C)CC

Assays:
Assay in all cases: Ki table, method not stated
MCL-1 = molecular target: T1, MCL-1 (UniProt Q07820 172-327, limits assumed)
T1 construct: also called Myeloid cell leukemia 1

BCL-XL = BCL-XL (UniProt Q07817 1-209)
BCL-2 = BCL-2 (UniProt P10415 1-217, limits assumed)
BCL-2, sequence (P10415 1-217 limits assumed): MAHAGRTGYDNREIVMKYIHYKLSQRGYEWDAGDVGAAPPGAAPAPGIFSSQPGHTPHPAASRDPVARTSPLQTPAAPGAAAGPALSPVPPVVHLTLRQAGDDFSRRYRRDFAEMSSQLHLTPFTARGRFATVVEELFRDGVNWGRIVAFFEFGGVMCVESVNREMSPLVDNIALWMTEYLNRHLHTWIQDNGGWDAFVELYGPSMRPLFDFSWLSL

T1 sequence (Q07820 172-327 limits assumed): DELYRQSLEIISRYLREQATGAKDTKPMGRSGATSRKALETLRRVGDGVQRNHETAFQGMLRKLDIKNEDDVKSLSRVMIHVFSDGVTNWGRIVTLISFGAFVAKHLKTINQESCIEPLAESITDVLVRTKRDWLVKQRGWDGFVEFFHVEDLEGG
BCL-XL, sequence (Q07817 1-209): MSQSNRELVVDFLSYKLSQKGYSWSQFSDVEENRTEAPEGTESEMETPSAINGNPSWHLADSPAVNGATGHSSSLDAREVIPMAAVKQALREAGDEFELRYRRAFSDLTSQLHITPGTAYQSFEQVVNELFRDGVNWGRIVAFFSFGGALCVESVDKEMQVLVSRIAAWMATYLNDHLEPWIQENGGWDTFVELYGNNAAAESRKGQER

| Binder | Ki (MCL-1) [nM] | Ki (BCL-XL) [nM] | Ki (BCL-2) [nM] |
| --- | --- | --- | --- |
| B1 | 83.7 | 8 | 280 |
| B2 | 9.9 | 17.4 | 70.6 |
| B3 | 8.9 | 8.4 | 68.2 |
| B4 | 5.5 | 59 | 120 |
| B5 | 42.5 | 83.5 | 97.9 |
| B6 | 10.4 | 7.7 | 25.7 |
| B7 | 3.9 | 33.4 | 53.2 |
| B8 | 6.2 | 33.9 | 76.7 |
| B9 | 9.8 | 20.5 | 39.1 |
| B10 | 3.8 | 32.6 | 63.9 |
| B11 | 4.8 | 35.9 | 64.9 |
| B12 | 3 | 36.3 | 41.1 |
